Laboratory results reported in patent US20200010570A1 (SICHUAN KELUN BIOTECH BIOPHARMACEUTICAL, published 2020).

Tests used:
[1] = biological target: T1, recombinant protein PDL-1ECD-mFc (human, UniProt Q9NZQ7 19-238); experiment: indirect ELISA, method of Example 9; column 'Affinity by ELISA (nM)'
T1 construct: also called PDL-1-mFc; human PDL-1 (coated antigen); not shown: a TEV site before it is implied by the TEV digestion of

[2] = biological target: T2, PDL-1 on the cell surface (293T cells expressing PDL-1) (human, UniProt Q9NZQ7 19-290); experiment: FACS, cells expressing PDL-1, method of Example 8; column 'Cell affinity by FACS'
[3] = biological target: T2, PDL-1 on the cell surface (293T cells …); experiment: FACS, cells expressing PDL-1, method of Example 8
[4] = biological target: T1, recombinant protein PDL-1ECD-mFc; experiment: competitive ELISA, method 'described in Example 13'; column 'Affinity by competitive ELISA (nM)'; competitor not given
[5] = biological target: T3, PDL-1 antigen (PDL-1-mFc digested with TEV protease) (human, UniProt Q9NZQ7 19-238); experiment: Fortebio, PDL-1 on sensor, antibody then PD-1 10 µg/ml; competitor PD-1
T3 construct: the whole entry is named
T3 sequence (Q9NZQ7 19-238 limits assumed): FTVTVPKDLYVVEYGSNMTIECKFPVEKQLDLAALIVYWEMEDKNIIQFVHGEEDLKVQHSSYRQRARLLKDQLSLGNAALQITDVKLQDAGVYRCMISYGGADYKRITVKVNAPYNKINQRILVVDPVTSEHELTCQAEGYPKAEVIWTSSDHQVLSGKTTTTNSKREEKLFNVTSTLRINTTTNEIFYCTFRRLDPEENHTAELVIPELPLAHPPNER

T1 sequence (Q9NZQ7 19-238): as the sequence (Q9NZQ7 19-238 limits assumed) above
T2 sequence (Q9NZQ7 19-290 limits assumed): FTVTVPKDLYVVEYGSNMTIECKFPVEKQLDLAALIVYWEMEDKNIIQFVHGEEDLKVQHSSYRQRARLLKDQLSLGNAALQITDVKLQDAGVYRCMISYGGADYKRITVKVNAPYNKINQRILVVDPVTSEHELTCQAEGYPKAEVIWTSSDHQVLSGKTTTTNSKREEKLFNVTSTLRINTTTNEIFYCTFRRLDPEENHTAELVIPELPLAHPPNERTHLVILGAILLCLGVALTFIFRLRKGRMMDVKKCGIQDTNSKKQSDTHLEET

B1: monoclonal antibody 9F6 (antibody, V domains shown)
VH: EVQLQQSGAELVKPGASVKLSCTASGFNIKDTYMYWVKQRPEQGLEWIGRIDPANGNTKYDPKFQGKATITADTSANTAYLQLSSLTSEDTAVYYCSRGPPGGIGEYIYAMDYWGQGTSVTVSS
VL: QIVLTQSPAIMSASLGERVTMTCTASSSVSSSYLHWYQQKPGSSPKLWIYSTSNLASGVPARFSGSGSGTSYSLTISSMEAEDAATYYCHQYHRSPPTFGGGTKLEI
notes: Murine antibody from a hybridoma
Q: How did the EC50 [1] turn out when B1 was run?
A: 0.029 nM

Q: What about the EC50 [2] of the same binder?
A: 2.93 nM

Q: And the positive % [3]?
A: 80.2%

Q: And the EC50 [4]?
A: 0.767 nM

B2: monoclonal antibody 5F10 (antibody, V domains shown)
VH: EVQLQQSGAELVKPGASVKLSCTASGFDIKDTYIHWVKQRPEQGLEWIGRIDPADGNTRYDPKFQDKTTITTDTSSNTAHLQLSSLTSEDTAVYYCARGLGAWFASWGQGTLVTVSA
VL: DIQMTQTTSSLSASLGDRVTISCRASQDITNSLNWYQQKPDGTVKLLIHYTSRLHSGVPSRFSGSGSGTDYSLTISNLEQEDIATYFCQQGHTLPPTFGGGTKLEI
notes: as for B1
Q: B2 was tested. Which EC50 [1] did it give?
A: 0.029 nM

Q: What about the EC50 [2] of the same binder?
A: 1.48 nM

Q: And the positive % [3]?
A: 60.3%

Q: And the EC50 [4]?
A: 0.838 nM

B3: monoclonal antibody 5C10 (antibody, V domains shown)
VH: QVQLKESGPGLVAPSQNLSITCTVSGFSLSNYDISWIRQPPGKGLEWLGVIWTGGATNYNSAFMSRLSISRDNSKSQVFLKMNSLQTDDTAIYYCVRDSNYRYDEPFTYWGQGTLVTVSA
VL: DILLTQSPAILSVSPGERVSLSCRASQSIGTNIHWFQQRTNGSPRLLIKYASESISGIPSRFSGSGSGTDFTLSINSVESEDIADYYCQQSNSWPYTFGGGTKLEI
notes: Murine antibody purified from hybridoma supernatant; also called antibody of hybridoma cell strain LT005
Q: Which EC50 [1] does the source give for B3 here?
A: 0.031 nM

Q: What about the EC50 [2] of the same binder?
A: 2.3 nM

Q: And the EC50 [5]?
A: 0.817 nM

Q: And the positive % [3]?
A: 100%

Q: And the EC50 [4]?
A: 0.785 nM
